How the values were obtained:
[1] = target: T1, FcgRIIaR (human, UniProt P12318 34-217); experiment: SPR, amount bound per captured antibody
T1 construct: extracellular domain; also called FcγRIIa R type; FcγRIIa (R type)
T1 sequence (looked up): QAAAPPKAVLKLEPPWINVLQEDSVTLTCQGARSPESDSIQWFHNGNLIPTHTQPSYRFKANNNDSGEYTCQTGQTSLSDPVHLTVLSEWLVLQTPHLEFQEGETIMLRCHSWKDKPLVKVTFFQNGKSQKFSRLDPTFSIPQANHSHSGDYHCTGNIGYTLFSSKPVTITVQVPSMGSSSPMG

[2] = target: T2, FcgRIIb (human, UniProt P31994 43-217); experiment: SPR, amount bound per captured antibody
T2 construct: extracellular domain; also called FcγRIIb
T2 sequence (looked up): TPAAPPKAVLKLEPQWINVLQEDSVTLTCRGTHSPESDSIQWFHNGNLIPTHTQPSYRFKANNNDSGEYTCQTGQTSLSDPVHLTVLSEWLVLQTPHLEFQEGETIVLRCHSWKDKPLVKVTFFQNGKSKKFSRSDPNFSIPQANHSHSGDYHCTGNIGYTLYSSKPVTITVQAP

[3] = target: T3, human complement C1q (human, UniProt P02745 23-245; P02746 28-253; P02747 29-245); experiment: SPR, C1q bound per antibody captured on Protein L
T3 construct: Bought (PROSPEC or Calbiochem); also called human C1q
Protocol: The interaction between an antibody and human C1q was analyzed using Biacore T200 (GE Healthcare). HBS-EP+ (GE Healthcare) was used as the running buffer, and the measurement temperature was set at 25° C. Chips produced by immobilizing Protein L (ACTIGEN or BioVision) onto Series S sensor Chip CM4 (GE Healthcare) by amine coupling were used.
The antibodies of interest were captured onto these sensor chips, and allowed to interact with human complement C1q (PROSPEC or Calbiochem) diluted in the running buffer. The amount of antibody binding was determined, and comparisons were made among the antibodies. However, since the amount of C1q bound depends on the amount of captured antibodies, corrected values obtained by dividing the amount of C1q bound by the amount of each antibody captured were compared. Furthermore, by reaction with 10 mM glycine-HCl, pH 1.5, the antibodies captured onto the sensor chips were washed, and the sensor chips were recycled and reused.

T3 sequence (P02745 23-245 limits assumed, chain 1 of 3): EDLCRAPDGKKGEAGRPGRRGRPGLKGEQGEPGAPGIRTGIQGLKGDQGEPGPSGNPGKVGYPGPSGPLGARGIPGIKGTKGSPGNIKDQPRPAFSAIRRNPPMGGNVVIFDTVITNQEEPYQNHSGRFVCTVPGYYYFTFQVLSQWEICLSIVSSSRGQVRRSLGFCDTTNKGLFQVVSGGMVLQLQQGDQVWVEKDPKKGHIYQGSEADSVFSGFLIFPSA
T3 sequence (P02746 28-253 limits assumed, chain 2 of 3): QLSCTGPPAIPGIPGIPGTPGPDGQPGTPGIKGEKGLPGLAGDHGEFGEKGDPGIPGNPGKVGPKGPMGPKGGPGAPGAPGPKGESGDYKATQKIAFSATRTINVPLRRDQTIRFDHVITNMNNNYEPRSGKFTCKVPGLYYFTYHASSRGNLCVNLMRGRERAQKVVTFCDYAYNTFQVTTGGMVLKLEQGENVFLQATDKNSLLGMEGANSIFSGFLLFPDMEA
T3 sequence (P02747 29-245 limits assumed, chain 3 of 3): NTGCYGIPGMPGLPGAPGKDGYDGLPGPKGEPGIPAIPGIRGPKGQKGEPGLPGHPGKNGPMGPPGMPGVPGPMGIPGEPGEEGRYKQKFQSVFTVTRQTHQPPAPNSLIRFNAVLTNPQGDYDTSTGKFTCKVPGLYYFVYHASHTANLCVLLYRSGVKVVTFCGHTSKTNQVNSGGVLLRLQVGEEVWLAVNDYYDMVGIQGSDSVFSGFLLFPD

B1: IL6R-P756/IL6R-L (antibody, human IgG1, kappa)
heavy: QVQLQESGPGLVKPSETLSLTCAVSGHSISHDHAWSWVRQPPGEGLEWIGFISYSGITNYNPSLQGRVTISRDNSKNTLYLQMNSLRAEDTAVYYCARSLARTTAMDYWGEGTLVTVSSASTKGPSVFPLAPSSKSTSGGTAALGCLVKDYFPEPVTVSWNSGALTSGVHTFPAVLQSSGLYSLSSVVTVPSSSLGTQTYICNVNHKPSNTKVDKKVEPKSCDKTHTCPPCPAPDLLGGDSVFLFPPKPKDTLMISRTPEVTCVVIDVAEEDGEVKFNWYVDGVEVHNAKTKPREEQYNSTYRVVSVLTVLHQDWLNGKEYKCKVSNKGLPSSIEKTISKAKGQPREPQVYTLPPSRDELTKNQVSLTCLVKGFYPSDIAVEWESNGQPENNYKTTPPVLDSDGSFFLYSKLTVDKSRWQQGNVFSCSVMHEALHNHYTQKSLSLSP
light: not shown
Relative FcgRIIaR-binding Activity [1]: 92.4 IL6R-G1d/IL6R-L=100
Relative FcgRIIb-binding Activity [2]: 323 IL6R-G1d/IL6R-L=100
Amount of C1q-binding when that for G1d is Defined as 100 [3]: 15 G1d=100

B2: IL6R-P762/IL6R-L (antibody, human IgG1, kappa)
heavy: QVQLQESGPGLVKPSETLSLTCAVSGHSISHDHAWSWVRQPPGEGLEWIGFISYSGITNYNPSLQGRVTISRDNSKNTLYLQMNSLRAEDTAVYYCARSLARTTAMDYWGEGTLVTVSSASTKGPSVFPLAPSSKSTSGGTAALGCLVKDYFPEPVTVSWNSGALTSGVHTFPAVLQSSGLYSLSSVVTVPSSSLGTQTYICNVNHKPSNTKVDKKVEPKSCDKTHTCPPCPAPELLGGDSVFLFPPKPKDTLMISRTPEVTCVVVDVSHEDGEVKFNWYVDGVEVHNAKTKPREEQYNSTYRVVSVLTVLHQDWLNGKEYKCKVSNKGLPSSIEKTISKAKGQPREPQVYTLPPSRDELTKNQVSLTCLVKGFYPSDIAVEWESNGQPENNYKTTPPVLDSDGSFFLYSKLTVDKSRWQQGNVFSCSVMHEALHNHYTQKSLSLSP
light: not shown
Relative FcgRIIaR-binding Activity [1]: 75.8 IL6R-G1d/IL6R-L=100
Relative FcgRIIb-binding Activity [2]: 252 IL6R-G1d/IL6R-L=100
Amount of C1q-binding when that for G1d is Defined as 100 [3]: 14.6 G1d=100

B3: IL6R-P758/IL6R-L (antibody, human IgG1, kappa)
heavy: QVQLQESGPGLVKPSETLSLTCAVSGHSISHDHAWSWVRQPPGEGLEWIGFISYSGITNYNPSLQGRVTISRDNSKNTLYLQMNSLRAEDTAVYYCARSLARTTAMDYWGEGTLVTVSSASTKGPSVFPLAPSSKSTSGGTAALGCLVKDYFPEPVTVSWNSGALTSGVHTFPAVLQSSGLYSLSSVVTVPSSSLGTQTYICNVNHKPSNTKVDKKVEPKSCDKTHTCPPCPAPELLGDDSVFLFPPKPKDTLMISRTPEVTCVVVDVSDEDGEVKFNWYVDGVEVHNAKTKPREEQYNSTYRVVSVLTVLHQDWLNGKEYKCKVSNKGLPSSIEKTISKAKGQPREPQVYTLPPSRDELTKNQVSLTCLVKGFYPSDIAVEWESNGQPENNYKTTPPVLDSDGSFFLYSKLTVDKSRWQQGNVFSCSVMHEALHNHYTQKSLSLSP
light: not shown
Relative FcgRIIaR-binding Activity [1]: 90.6 IL6R-G1d/IL6R-L=100
Relative FcgRIIb-binding Activity [2]: 285 IL6R-G1d/IL6R-L=100
Amount of C1q-binding when that for G1d is Defined as 100 [3]: 2 G1d=100

B4: IL6R-P760/IL6R-L (antibody, human IgG1, kappa)
heavy: QVQLQESGPGLVKPSETLSLTCAVSGHSISHDHAWSWVRQPPGEGLEWIGFISYSGITNYNPSLQGRVTISRDNSKNTLYLQMNSLRAEDTAVYYCARSLARTTAMDYWGEGTLVTVSSASTKGPSVFPLAPSSKSTSGGTAALGCLVKDYFPEPVTVSWNSGALTSGVHTFPAVLQSSGLYSLSSVVTVPSSSLGTQTYICNVNHKPSNTKVDKKVEPKSCDKTHTCPPCPAPELLGDDSVFLFPPKPKDTLMISRTPEVTCVVVDVSEEDGEVKFNWYVDGVEVHNAKTKPREEQYNSTYRVVSVLTVLHQDWLNGKEYKCKVSNKGLPSSIEKTISKAKGQPREPQVYTLPPSRDELTKNQVSLTCLVKGFYPSDIAVEWESNGQPENNYKTTPPVLDSDGSFFLYSKLTVDKSRWQQGNVFSCSVMHEALHNHYTQKSLSLSP
light: not shown
Relative FcgRIIaR-binding Activity [1]: 97.1 IL6R-G1d/IL6R-L=100
Relative FcgRIIb-binding Activity [2]: 304 IL6R-G1d/IL6R-L=100
Amount of C1q-binding when that for G1d is Defined as 100 [3]: 21.7 G1d=100

B5: IL6R-P759/IL6R-L (antibody, human IgG1, kappa)
heavy: QVQLQESGPGLVKPSETLSLTCAVSGHSISHDHAWSWVRQPPGEGLEWIGFISYSGITNYNPSLQGRVTISRDNSKNTLYLQMNSLRAEDTAVYYCARSLARTTAMDYWGEGTLVTVSSASTKGPSVFPLAPSSKSTSGGTAALGCLVKDYFPEPVTVSWNSGALTSGVHTFPAVLQSSGLYSLSSVVTVPSSSLGTQTYICNVNHKPSNTKVDKKVEPKSCDKTHTCPPCPAPDLLGDDSVFLFPPKPKDTLMISRTPEVTCVVVDVSDEDGEVKFNWYVDGVEVHNAKTKPREEQYNSTYRVVSVLTVLHQDWLNGKEYKCKVSNKGLPSSIEKTISKAKGQPREPQVYTLPPSRDELTKNQVSLTCLVKGFYPSDIAVEWESNGQPENNYKTTPPVLDSDGSFFLYSKLTVDKSRWQQGNVFSCSVMHEALHNHYTQKSLSLSP
light: not shown
Relative FcgRIIaR-binding Activity [1]: 96.5 IL6R-G1d/IL6R-L=100
Relative FcgRIIb-binding Activity [2]: 305 IL6R-G1d/IL6R-L=100
Amount of C1q-binding when that for G1d is Defined as 100 [3]: 14.5 G1d=100

B6: IL6R-P761/IL6R-L (antibody, human IgG1, kappa)
heavy: QVQLQESGPGLVKPSETLSLTCAVSGHSISHDHAWSWVRQPPGEGLEWIGFISYSGITNYNPSLQGRVTISRDNSKNTLYLQMNSLRAEDTAVYYCARSLARTTAMDYWGEGTLVTVSSASTKGPSVFPLAPSSKSTSGGTAALGCLVKDYFPEPVTVSWNSGALTSGVHTFPAVLQSSGLYSLSSVVTVPSSSLGTQTYICNVNHKPSNTKVDKKVEPKSCDKTHTCPPCPAPDLLGDDSVFLFPPKPKDTLMISRTPEVTCVVVDVSEEDGEVKFNWYVDGVEVHNAKTKPREEQYNSTYRVVSVLTVLHQDWLNGKEYKCKVSNKGLPSSIEKTISKAKGQPREPQVYTLPPSRDELTKNQVSLTCLVKGFYPSDIAVEWESNGQPENNYKTTPPVLDSDGSFFLYSKLTVDKSRWQQGNVFSCSVMHEALHNHYTQKSLSLSP
light: not shown
Relative FcgRIIaR-binding Activity [1]: 103 IL6R-G1d/IL6R-L=100
Relative FcgRIIb-binding Activity [2]: 320 IL6R-G1d/IL6R-L=100
Amount of C1q-binding when that for G1d is Defined as 100 [3]: 2.1 G1d=100

B7: IL6R-P757/IL6R-L (antibody, human IgG1, kappa)
heavy: QVQLQESGPGLVKPSETLSLTCAVSGHSISHDHAWSWVRQPPGEGLEWIGFISYSGITNYNPSLQGRVTISRDNSKNTLYLQMNSLRAEDTAVYYCARSLARTTAMDYWGEGTLVTVSSASTKGPSVFPLAPSSKSTSGGTAALGCLVKDYFPEPVTVSWNSGALTSGVHTFPAVLQSSGLYSLSSVVTVPSSSLGTQTYICNVNHKPSNTKVDKKVEPKSCDKTHTCPPCPAPELLGGDSVFLFPPKPKDTLMISRTPEVTCVVIDVAEEDGEVKFNWYVDGVEVHNAKTKPREEQYNSTYRVVSVLTVLHQDWLNGKEYKCKVSNKGLPSSIEKTISKAKGQPREPQVYTLPPSRDELTKNQVSLTCLVKGFYPSDIAVEWESNGQPENNYKTTPPVLDSDGSFFLYSKLTVDKSRWQQGNVFSCSVMHEALHNHYTQKSLSLSP
light: not shown
Relative FcgRIIaR-binding Activity [1]: 89.2 IL6R-G1d/IL6R-L=100
Relative FcgRIIb-binding Activity [2]: 327 IL6R-G1d/IL6R-L=100
Amount of C1q-binding when that for G1d is Defined as 100 [3]: 22.6 G1d=100

B8: IL6R-P763/IL6R-L (antibody, human IgG1, kappa)
heavy: QVQLQESGPGLVKPSETLSLTCAVSGHSISHDHAWSWVRQPPGEGLEWIGFISYSGITNYNPSLQGRVTISRDNSKNTLYLQMNSLRAEDTAVYYCARSLARTTAMDYWGEGTLVTVSSASTKGPSVFPLAPSSKSTSGGTAALGCLVKDYFPEPVTVSWNSGALTSGVHTFPAVLQSSGLYSLSSVVTVPSSSLGTQTYICNVNHKPSNTKVDKKVEPKSCDKTHTCPPCPAPELLGGDSVFLFPPKPKDTLMISRTPEVTCVVVDVAEEDGEVKFNWYVDGVEVHNAKTKPREEQYNSTYRVVSVLTVLHQDWLNGKEYKCKVSNKALPAPIEKTISKAKGQPREPQVYTLPPSRDELTKNQVSLTCLVKGFYPSDIAVEWESNGQPENNYKTTPPVLDSDGSFFLYSKLTVDKSRWQQGNVFSCSVMHEALHNHYTQKSLSLSP
light: not shown
Relative FcgRIIaR-binding Activity [1]: 101 IL6R-G1d/IL6R-L=100
Relative FcgRIIb-binding Activity [2]: 332 IL6R-G1d/IL6R-L=100
Amount of C1q-binding when that for G1d is Defined as 100 [3]: 41.7 G1d=100

B9: IL6R-P764/IL6R-L (antibody, human IgG1, kappa)
heavy: QVQLQESGPGLVKPSETLSLTCAVSGHSISHDHAWSWVRQPPGEGLEWIGFISYSGITNYNPSLQGRVTISRDNSKNTLYLQMNSLRAEDTAVYYCARSLARTTAMDYWGEGTLVTVSSASTKGPSVFPLAPSSKSTSGGTAALGCLVKDYFPEPVTVSWNSGALTSGVHTFPAVLQSSGLYSLSSVVTVPSSSLGTQTYICNVNHKPSNTKVDKKVEPKSCDKTHTCPPCPAPELLGGDSVFLFPPKPKDTLMISRTPEVTCVVIDVSEEDGEVKFNWYVDGVEVHNAKTKPREEQYNSTYRVVSVLTVLHQDWLNGKEYKCKVSNKALPAPIEKTISKAKGQPREPQVYTLPPSRDELTKNQVSLTCLVKGFYPSDIAVEWESNGQPENNYKTTPPVLDSDGSFFLYSKLTVDKSRWQQGNVFSCSVMHEALHNHYTQKSLSLSP
light: not shown
Relative FcgRIIaR-binding Activity [1]: 89.5 IL6R-G1d/IL6R-L=100
Relative FcgRIIb-binding Activity [2]: 329 IL6R-G1d/IL6R-L=100
Amount of C1q-binding when that for G1d is Defined as 100 [3]: 23.1 G1d=100

Source: patent US20220411483A1 (Chugai, published 2022)
